# B1: R166.C5 (antibody, V domains shown)
# VH: QSVEESGGRLVTPGTPLTLTCTVSGFSLRNFAMSWVRQAPGKGLEWIGIIYSGGTRDYATWAKGRFTISKTSTTVDLKMTSPTTEDTATYFCARDRSPDYSAAFLLWGQGTLVTVSS
# VL: IVMTQTPSSKSVPVGDTVTINCQASESVYSNNHLAWFQQKPGQPPKLLIYSASTLESGVPSRFKGSGSGTQFTLTISGVQCDDAATYYCAGYKSSDTDGTSFGGGTEVVVKG
# What was measured:
# Experiment in all cases: SPR
# AS154 VHH = target: AS154 VHH
# AS588 VHH = target: AS588 VHH
# AS325 VHH = target: AS325 VHH
# AS988 VHH = target: AS988 VHH
# AS673 VHH = target: AS673 VHH
# [1] = target: His-tag camel-derived nanobody AS718 VHH-His
# AS200 VHH = target: AS200 VHH
# AS675 VHH = target: AS675 VHH
# AS519 VHH = target: AS519 VHH
# AS656 VHH = target: AS656 VHH
# Sequence of AS656 VHH (VHH, as listed by the source): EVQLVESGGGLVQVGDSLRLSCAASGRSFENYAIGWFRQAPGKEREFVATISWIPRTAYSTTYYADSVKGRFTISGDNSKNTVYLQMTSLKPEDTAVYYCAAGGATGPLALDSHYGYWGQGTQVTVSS
# Sequence of AS675 VHH (VHH, as listed by the source): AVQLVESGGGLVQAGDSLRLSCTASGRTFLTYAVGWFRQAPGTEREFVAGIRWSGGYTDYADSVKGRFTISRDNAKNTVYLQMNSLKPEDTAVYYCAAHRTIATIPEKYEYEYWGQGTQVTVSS
# Sequence of AS519 VHH (VHH, as listed by the source): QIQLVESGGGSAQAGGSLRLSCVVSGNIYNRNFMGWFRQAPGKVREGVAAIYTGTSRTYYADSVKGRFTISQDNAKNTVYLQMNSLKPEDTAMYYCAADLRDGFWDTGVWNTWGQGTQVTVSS
# Sequence of AS588 VHH (VHH, as listed by the source): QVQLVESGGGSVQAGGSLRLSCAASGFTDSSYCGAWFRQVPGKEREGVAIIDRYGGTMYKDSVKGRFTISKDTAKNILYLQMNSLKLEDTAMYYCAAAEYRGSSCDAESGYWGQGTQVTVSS
# Sequence of AS154 VHH (VHH, as listed by the source): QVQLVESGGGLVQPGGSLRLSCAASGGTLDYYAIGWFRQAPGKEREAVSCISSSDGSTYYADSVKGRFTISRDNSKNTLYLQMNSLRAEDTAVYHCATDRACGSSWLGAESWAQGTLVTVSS
# Sequence of AS988 VHH (VHH, as listed by the source): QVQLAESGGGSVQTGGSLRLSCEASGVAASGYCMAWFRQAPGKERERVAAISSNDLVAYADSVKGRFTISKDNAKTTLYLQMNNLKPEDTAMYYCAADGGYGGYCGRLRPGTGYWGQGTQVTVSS
# Sequence of AS325 VHH (VHH, as listed by the source): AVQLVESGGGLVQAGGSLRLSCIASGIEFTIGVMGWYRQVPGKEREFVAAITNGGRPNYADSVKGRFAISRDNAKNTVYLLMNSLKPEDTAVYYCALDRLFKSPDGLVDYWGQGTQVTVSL
# Sequence of His-tag camel-derived nanobody AS718 VHH-His (VHH, as listed by the source): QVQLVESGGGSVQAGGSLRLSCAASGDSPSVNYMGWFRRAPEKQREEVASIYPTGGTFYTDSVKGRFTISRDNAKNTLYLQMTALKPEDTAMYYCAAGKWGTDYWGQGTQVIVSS
# Sequence of AS200 VHH (VHH, as listed by the source): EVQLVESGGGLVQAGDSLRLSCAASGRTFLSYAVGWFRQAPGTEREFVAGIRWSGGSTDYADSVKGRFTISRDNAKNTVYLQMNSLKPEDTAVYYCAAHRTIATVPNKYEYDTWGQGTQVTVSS
# Sequence of AS673 VHH (VHH, as listed by the source): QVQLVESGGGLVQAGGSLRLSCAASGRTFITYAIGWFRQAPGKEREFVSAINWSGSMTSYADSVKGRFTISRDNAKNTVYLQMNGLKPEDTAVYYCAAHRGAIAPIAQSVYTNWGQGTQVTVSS
binder,measurement,setting,value
B1,Kd,AS154 VHH,402 pM
same,Kd,AS588 VHH,7.09 pM
same,Kd,AS325 VHH,4.04 pM
same,Kd,AS988 VHH,7.08 pM
same,Kd,AS673 VHH,4.36 pM
same,Kd,[1],3.47 pM
same,Kd,AS200 VHH,11.8 pM
same,Kd,AS675 VHH,34.5 pM
same,Kd,AS519 VHH,1.66 pM
same,Kd,AS656 VHH,1.34 pM
